From publication PMC8956578, “The inner side of yeast PCNA contributes to genome stability by mediating interactions with Rad18 and the replicative DNA polymerase δ” (Scientific Reports, 2022) come the findings set out here.

This data set concerns the molecule itself. Put plainly: native gel or EMSA; increasing concentrations of purified wild-type and mutant PCNA on a 12% non-denaturing polyacrylamide gel. In general terms: Mobility shift assays separate free from complexed probe on a gel.

B1: wild-type PCNA (proliferating cell nuclear antigen), purified (natural protein, yeast, UniProt P15873 1-258, looked up)
chain: MLEAKFEEASLFKRIIDGFKDCVQLVNFQCKEDGIIAQAVDDSRVLLVSLEIGVEAFQEYRCDHPVTLGMDLTSLSKILRCGNNTDTLTLIADNTPDSIILLFEDTKKDRIAEYSLKLMDIDADFLKIEELQYDSTLSLPSSEFSKIVRDLSQLSDSINIMITKETIKFVADGDIGSGSVIIKPFVDMEHPETSIKLEMDQPVDLTFGAKYLLDIIKGSSLSDRVGIRLSSEAPALFQFDLKSGFLQFFLAPKFNDEE
notes: PCNA (POL30), yeast; open reading frame cloned in N-terminal fusion with GST; also called Pol30; source: protease deficient yeast strain BJ5464, galactose inducible promoter (pBJ842 backbone), purified
For the protein B1, the stoichiometry N (in general, a count of units in the complex or per binding partner) is 3.
